Data published in patent US20240279332A1 (Amgen, published 2024).

T1: cyno TREM-1 on cells (cynomolgus monkey, UniProt A0A2K5VHG8 21-233)
T1 sequence: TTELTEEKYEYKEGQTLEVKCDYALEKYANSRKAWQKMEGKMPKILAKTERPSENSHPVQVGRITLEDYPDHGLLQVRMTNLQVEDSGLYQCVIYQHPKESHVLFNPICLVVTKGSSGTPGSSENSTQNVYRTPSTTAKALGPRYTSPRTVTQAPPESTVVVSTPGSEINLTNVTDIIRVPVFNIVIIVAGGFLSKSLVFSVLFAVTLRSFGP


What follows are binders tested against T1, cyno TREM-1 on cells (assay: cell-based or functional assay).

Row | Binder | Ab IC50-Cyno PBMC (Trial 2), TNFα release after cyno PGLYRP1/PGN [nM] | Ab IC50-Cyno PBMC (Trial 1), TNFα release after cyno PGLYRP1/PGN [nM]
1 | 61G5 (antibody, V domains shown) VH: QVQLVQSGAEVKKPGASVKVSCKASGYTFTSYDINWVRQATGQGLEWMGWMNPNSGNSGSVKKFRDRVTMTRNTSISTAYMELSSLRSEDTAVYYCVRLIGYSSAWKWSFQHWGQGTLVTVSS VL: DIQMTQSPSSLSASVGDRVTITCQASRDISKYLNWYQQKPGKAPKLQIYDASNLETGVPSRFSGSGSGTDFTFTISSLQPEDIATYYCQHYDNIPITFGQGTRLEIKR | 2.34 | –
2 | 49A2 (antibody, V domains shown) VH: EVQLVESGGGLVQPGGSLRLSCAASGFTFSSNWMSWVRQAPGKGLDWMASMKQDGSEIYYVDSVKGRFTISRDNAKNSLHLQMNSLRAEDTAVYYCVRGGWRFESWGQGALVTVSS VL: EIVMTQSPATLSVSPGERATLSCRASQSVSSNLAWYQQKSGQAPRLLIYGASIRATGIPARVSGSGSGTEFTFTISSLQSEDFAVYYCQQYKNWPLTLGGGTKVEIKR | 0.266 | 0.732
3 | 44A5 (antibody, V domains shown) VH: EVQLLESGGGLVQPGGSLRLSCAASGFTFSTYAMNWVRQAPGKGLEWVSTVSGSGRPTYYADSVKGRFTISRDNSKNTLYLQMNSLRAEDTAVYYCAKAYYSNYLFDYWGQGTLVTVSS VL: EIVMTQSPAILSVSPGERATLSCRASQSVSSNLAWYQQKPGQAPRLLIYGASTRATGVPARFSGGGSGTDFTLTISSLQSEDFAVYYCQHCKTWPPLTFGGGTKVDLKR | 0.0091 | 0.0579
4 | 57C10 (antibody, V domains shown) VH: QVQLVQSGAEVKKPGASVKVSCKASGYTFTRYDINWVRQATGQGLEWMGWLNPNSGNTGQTQKFRGRVTMTRNTSINTAYMELSSLRSEDTAVYYCARGGYTSAWRWYFDLWGRGTLVTVSS VL: DIQMTQSPSSLSASVGDRVTITCQASQDINNHLNWYQQKPGKAPKLLIYDVSNLETGVPSSFSGSGCGTDFTFTISSLQPEDIATYFCQQYDKLPLTFGGGTKVEIEG | 0.0284 | 0.154
5 | 61B12 (antibody, V domains shown) VH: QVQLVQSGAEVTKPGASVKVSCKASGYTFTRYDINWVRQATGQGLEWMGWMNPNSGNSGSVQKFRGRVTMTRNTSITTVYMELSSLRSDDTAVYYCARGGISSSWHWAFDIWGQGTMVTVSS VL: DIQMTQSPSSLSASVGDRVTITCQASQDINNHLNWYQQKPGKAPKLLIYGAYTLETGVPSRFSGSGSGTDFTFTISSLQPEDIATYYCQQYDKLPLTFGGGTKVEIKR | 0.0174 | 0.0469
6 | 63F8 (antibody, V domains shown) VH: QVQLVQSGAEVKKPGASVKVSCKASGYTFTSYDINWVRQATGQGLEWMGRMNPKSGNAGYVQNFRGRVTMTRNTSISTAYMELSSLRSEDTAVYYCARGGRTSIWSFVFDYWGQGTLVTVSS VL: DIQMTQSPSSLSASVGDRVTITCQASQDISKHLNWYQQKPGKAPKLLIYDTSNLETGVPSRFSGSGSGTDFTFTISSLQPEDIATYNCQQYDKLPLTFGGGTKVEIKR | 0.0161 | 0.0226
7 | 64D7 (antibody, V domains shown) VH: QVQLVQSGAEVKKPGASVKVSCKASGYTFTSYDINWVRQATGQGLEWMGWMNPNRGNTGYVKKFQGRVTMTRNTSISTAYMELSSLRSEDTAVYYCARRRAVYRSSWEWYFDLWGRGTLVTVSS VL: DTQMTQSPSSLSASEGDRVTITCQASQDIFNDLNWYQEKPGKAPKLLIYHASNLETGVPSRFSGSGSGTDYTFTISSLQPEDIATYYCQQYGNLPLTFGGGTKVEIKR | 0.78 | 6.94
8 | 30H2 (antibody, V domains shown) VH: EVQVLESGGGLVQPGESLRLSCTASGFTFNAYAMSWVRQAPGKGLEWVSTISGSGSTTYYADSVKGRFTISRDNSKNTLDLQMNSLRAADTAVYYCAKVAGSNFFFDHWGQGTLVTVSS VL: EIVMTQSPATLSVSPGERATLSCRASQSINSNLAWYQQKPGQAPRLLIYGAYTRATGIPDRFSGSGSGTEFTLTISSLQSEDFAVYYCQEFIMWPPWTFGLGTQVEIKR | – | 3.77
9 | 46H7 (antibody, V domains shown) VH: EVQLLESGGGMVQPGGSLRLSCAVSGFTFSRYAMSWVRQAPGKGLEWVSEMRGSSGSTYYADSVKGRFTISRDNSKNTLYLQMNSLRVEDTAIYYCAKEFSSNSLFDYWGQGTLVTVSS VL: EIVMTQSPATLSVSPGERATLSCRASQSVNSNLAWYQQKPGRAPRLLIYGASTRATGIPARFSGSGSGTEFTLTISSLQSEDFAVYYCQQFYNWPPWTFGQGTKVEIKR | 0.0097 | 0.0951
10 | 66B8 (antibody, V domains shown) VH: QVQLVQSGAEVKKPGASVKVSCKASGYTFTGYYMHWVRQAPGQGLEWMGWFKPNSGVTNYAQKFQGRVTMSRDTSISTAYMELSSLRSDDTAVYYCARAGYSTSWKDWFDPWGQGTLVTVSS VL: DIQMTQFPSSVSASVGDRVTITCRASQGISRWLAWYQQKQGKAPKLLIYMVSSLQSGVPSRFSGSGSGTDFTLTISSLQPEDFATYYCQQSHNFPITFGQGTRLDIKR | 0.0232 | 0.114
11 | 50A12 (antibody, V domains shown) VH: EVQLVESGGGLVQPGGSLRLSCAASGFTFSSYWMSWVRQAPGKGLEWVANIKQDGSEEYYVDSVKGRFTISRDNAKNSLFLQMNSLRAEDTAVYYCARDYGDSFDYWGQGTLVTVSS VL: DIQMTQSPSSVSASVGDRVTITCRASQGIRKWLAWYQQKPGRAPKLLIYAASRLQSGVPSRFSGSGSGTDFTLTISSLRPEDFATYYCLQAHGFPWTFGQGTKVEIKR | – | 2
